Results on 10 substances are retold here after patent US20080096187A1.

Holding throughout (assay): cell-based or functional assay
Assay [1] deals with HIV-1 YU2 envelope glycoprotein (HIV-1 YU2) (UniProt P35961).
Assay [2] deals with HIV-2 7312A envelope glycoprotein (HIV-2 isolate 7312A).
Assay [3] addresses HIV-2 7312A envelope glycoprotein with substitutions 660 (K to A), 662 (N to D), 663 (S to K) and 665 (D to A) (HIV-2 isolate 7312A).
Assay [4] has as its target HIV-2 UC-1 envelope glycoprotein (HIV-2 UC1) (UniProt Q76638).
The target of assay [5] is HIV-2 7312A envelope glycoprotein with substitutions 675 (L to I) and 676 (A to T) (HIV-2 isolate 7312A).
Assay [6] deals with HIV-2 ST envelope glycoprotein (HIV-2 ST) (UniProt P20872).
In assay [7] the target is HIV-2 7312A/H419R envelope glycoprotein (HIV-2 isolate 7312A).
Assay [8] has as its target HIV-2 7312A/Q422L envelope glycoprotein (HIV-2 isolate 7312A).
For assay [9], the target named is HIV-2 7312A/V434M envelope glycoprotein (HIV-2 isolate 7312A).

As for 2F5 (antibody), the IC50 (neutralization) in assay [1] was 25 µg/mL; in assay [2] it was greater than 50 µg/mL; in assay [3], less than 0.1 µg/mL. For the same substance, the IC50 (neutralization) in the absence of sCD4 in assay [2] and in assay [4] was greater than 25 µg/mL each time. For the same substance, the IC50 (neutralization) in the presence of sCD4 in [2] and in [4] was greater than 25 µg/mL in each case.
In the case of 2G12 (antibody), in assay [2], the IC50 (neutralization) in the absence of sCD4 was greater than 25 µg/mL and the IC50 (neutralization) in the presence of sCD4 is greater than 25 µg/mL. Besides, in assay [4], the IC50 (neutralization) in the absence of sCD4 was greater than 25 µg/mL and the IC50 (neutralization) in the presence of sCD4 is greater than 25 µg/mL.
With 4E10 (antibody), the IC50 (neutralization) is 25 µg/mL in [1]; greater than 50 µg/mL in [2]; 0.8 µg/mL in assay [5]; 0.1 µg/mL in assay [6]; 1.2 µg/mL in assay [4].
For A32 (antibody), in assay [2], the IC50 (neutralization) in the absence of sCD4 was greater than 25 µg/mL and the IC50 (neutralization) in the presence of sCD4 was greater than 25 µg/mL. For the same substance, in assay [4], the IC50 (neutralization) in the absence of sCD4 was greater than 25 µg/mL and the IC50 (neutralization) in the presence of sCD4 is greater than 25 µg/mL.
For E51 (antibody), the IC50 (neutralization) in the absence of sCD4 in assay [2], in [7], in [8], in assay [9] and in assay [4] was greater than 25 µg/mL throughout. Further, the IC50 (neutralization) in the presence of sCD4 in assay [2] was greater than 25 µg/mL; in [7], 22 µg/mL; in assay [8], greater than 25 µg/mL; in assay [9] it was 4 µg/mL; in assay [4] it was 13 µg/mL.
On to ED47 (antibody), for which the IC50 (neutralization) in the absence of sCD4 in assay [2], in [7], in assay [8], in assay [9] and in assay [4] was greater than 25 µg/mL each time. The IC50 (neutralization) in the presence of sCD4 is greater than 25 µg/mL in assay [2]; 4.7 µg/mL in [7]; greater than 25 µg/mL in assay [8]; greater than 25 µg/mL in assay [9]; greater than 25 µg/mL in [4].
For ED49 (antibody), the IC50 (neutralization) in the absence of sCD4 in assay [2], in assay [7], in assay [8], in [9] and in assay [4] was greater than 25 µg/mL throughout. The IC50 (neutralization) in the presence of sCD4 worked out at 5.4 µg/mL in [2]; 3.3 µg/mL in [7]; 3 µg/mL in [8]; 2.4 µg/mL in assay [9]; 12 µg/mL in [4].
Regarding F105 (antibody), in [2], the IC50 (neutralization) in the absence of sCD4 was greater than 25 µg/mL and the IC50 (neutralization) in the presence of sCD4 was greater than 25 µg/mL. For the same substance, in assay [4], the IC50 (neutralization) in the absence of sCD4 is greater than 25 µg/mL and the IC50 (neutralization) in the presence of sCD4 is greater than 25 µg/mL.
Regarding X5 (antibody), the IC50 (neutralization) in the absence of sCD4 in assay [2], in [7], in [8], in [9] and in assay [4] was greater than 25 µg/mL throughout. The IC50 (neutralization) in the presence of sCD4 was greater than 25 µg/mL in assay [2]; greater than 25 µg/mL in assay [7]; greater than 25 µg/mL in assay [8]; 2.5 µg/mL in [9]; greater than 25 µg/mL in assay [4].
For b12 (antibody), the IC50 (neutralization) in [1] worked out at 3 µg/mL. In assay [2], the IC50 (neutralization) was greater than 50 µg/mL, the IC50 (neutralization) in the absence of sCD4 is greater than 25 µg/mL and the IC50 (neutralization) in the presence of sCD4 is greater than 25 µg/mL. In assay [4], the IC50 (neutralization) in the absence of sCD4 was greater than 25 µg/mL and the IC50 (neutralization) in the presence of sCD4 is greater than 25 µg/mL.
